# T1: HuCDCP1-C (human, UniProt Q9H5V8 30-667)
# T1 construct: range 30-667; expressed in HEK-293T, purified by Fc/his tag; also called human CDCP1-C; full-length extracellular domain of human CDCP1; not shown: Fc or his tag
# T1 sequence (looked up): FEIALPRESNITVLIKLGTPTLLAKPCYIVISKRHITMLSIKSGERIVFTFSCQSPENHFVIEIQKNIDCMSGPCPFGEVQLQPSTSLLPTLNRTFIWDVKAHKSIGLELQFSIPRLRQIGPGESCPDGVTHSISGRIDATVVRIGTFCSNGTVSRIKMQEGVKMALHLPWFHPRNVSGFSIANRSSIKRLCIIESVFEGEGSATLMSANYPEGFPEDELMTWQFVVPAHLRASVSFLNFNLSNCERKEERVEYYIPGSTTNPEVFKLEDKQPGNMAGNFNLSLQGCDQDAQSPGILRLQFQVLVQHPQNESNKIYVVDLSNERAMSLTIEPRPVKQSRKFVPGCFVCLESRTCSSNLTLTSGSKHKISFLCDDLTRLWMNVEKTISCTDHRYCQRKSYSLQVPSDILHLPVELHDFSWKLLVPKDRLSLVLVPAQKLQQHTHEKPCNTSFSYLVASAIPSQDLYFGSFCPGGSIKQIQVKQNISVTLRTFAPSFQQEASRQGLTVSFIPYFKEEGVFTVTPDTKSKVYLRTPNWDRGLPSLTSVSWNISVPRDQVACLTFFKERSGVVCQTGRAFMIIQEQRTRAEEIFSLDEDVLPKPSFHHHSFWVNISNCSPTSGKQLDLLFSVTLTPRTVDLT
# B1: 1CP-112 (antibody, human IgG1, kappa, V domains shown)
# VH: QVQLVQSGSELKKPGASVKVSCKASGYTLTDFSMHWVRQAPGQGLEWMGWINTETGAPTYADDFKGRFVFSLDTSVSTAYLQISSLKAEDTAVYYCSRGRDYDPHFDYWGQGTLVTVSS
# VL: EIVLTQSPATLSLSPGERATLSCRASQSISDFLHWYQQKPGQAPRLLIKYASQSISGIPARFSGSGPGSDFTLTISSVEPEDFAVYYCQSAHSFPYTFGQGTKLEIKR
# notes: humanized 8E5, human IgG1 kappa
# B2: 1CP-113 (antibody, human IgG1, kappa, V domains shown)
# VH: QVQLVQSGSELKKPGASVKVSCKASGYTLTDFSMHWVRQAPGQGLEWMGWINTETGAPTYADDFKGRFVLSLDTSVSTAYLQISSLKAEDTAVYYCSRGRDYDPHFDYWGQGTLVTVSS
# VL: EIVLTQSPATLSLSPGERATLSCRASQSISDFLHWYQQKPGQAPRLLIKYASQSISGIPARFSGSGPGSDFTLTISSVEPEDFAVYYCQSAHSFPYTFGQGTKLEIKR
# notes: as for B1
# B3: 1CP-114 (antibody, human IgG1, kappa, V domains shown)
# VH: QVQLVQSGSELKKPGESVKVSCKASGYTLTDFSMHWVRQAPGQGLEWMGWINTETGAPTYADDFKGRFVLSLDTSVSTAYLQISSLKSEDTAVYYCSRGRDYDPHFDYWGQGTLVTVSS
# VL: EIVLTQSPATLSLSPGERATLSCRASQSISDFLHWYQQKPGQAPRLLIKYASQSISGIPARFSGSGPGSDFTLTISSVEPEDFAVYYCQSAHSFPYTFGQGTKLEIKR
# notes: as for B1
# B4: 1CP-123 (antibody, human IgG1, kappa, V domains shown)
# VH: QVQLQQSGSELKKPGESVKLSCKASGYTLTDFSMHWVRQAPGQGLKWMGWINTETGAPTYADDFKGRFVFSLDTSVSMAYLQISSLKSEDTAVYYCSRGRDYDPHFDYWGQGTLVTVSS
# VL: EIVLTQSPATLSLSPGERATLSCRASQSISDFLHWYQQKSGQSPRLLIKYASQSISGIPARFSGSGSGSDFTLTISSVEPEDFAVYYCQSAHSFPYTFGQGTKLEIKR
# notes: as for B1
# B5: 1CP-116 (antibody, human IgG1, kappa, V domains shown)
# VH: QVQLVQSGSELKKPGASVKVSCKASGYTLTDFSMHWVRQAPGQGLEWMGWINTETGAPTYADDFKGRFVFSLDTSVSTAYLQISSLKAEDTAVYYCSRGRDYDPHFDYWGQGTLVTVSS
# VL: EIVLTQSPATLSLSPGERATLSCRASQSISDFLHWYQQKPGQSPRLLIKYASQSISGIPARFSGSGSGSDFTLTISSVEPEDFAVYYCQSAHSFPYTFGQGTKLEIKR
# notes: as for B1
# B6: 1CP-119 (antibody, human IgG1, kappa, V domains shown)
# VH: QVQLQQSGSELKKPGESVKLSCKASGYTLTDFSMHWVRQAPGQGLKWMGWINTETGAPTYADDFKGRFVFSLDTSVSMAYLQISSLKSEDTAVYYCSRGRDYDPHFDYWGQGTLVTVSS
# VL: EIVLTQSPATLSLSPGERATLSCRASQSISDFLHWYQQKPGQSPRLLIKYASQSISGIPARFSGSGSGSDFTLTISSVEPEDFAVYYCQSAHSFPYTFGQGTKLEIKR
# notes: as for B1
# B7: 1CP-122 (antibody, human IgG1, kappa, V domains shown)
# VH: QVQLVQSGSELKKPGESVKVSCKASGYTLTDFSMHWVRQAPGQGLEWMGWINTETGAPTYADDFKGRFVLSLDTSVSTAYLQISSLKSEDTAVYYCSRGRDYDPHFDYWGQGTLVTVSS
# VL: EIVLTQSPATLSLSPGERATLSCRASQSISDFLHWYQQKSGQSPRLLIKYASQSISGIPARFSGSGSGSDFTLTISSVEPEDFAVYYCQSAHSFPYTFGQGTKLEIKR
# notes: as for B1
# B8: 1CP-120 (antibody, human IgG1, kappa, V domains shown)
# VH: QVQLVQSGSELKKPGASVKVSCKASGYTLTDFSMHWVRQAPGQGLEWMGWINTETGAPTYADDFKGRFVFSLDTSVSTAYLQISSLKAEDTAVYYCSRGRDYDPHFDYWGQGTLVTVSS
# VL: EIVLTQSPATLSLSPGERATLSCRASQSISDFLHWYQQKSGQSPRLLIKYASQSISGIPARFSGSGSGSDFTLTISSVEPEDFAVYYCQSAHSFPYTFGQGTKLEIKR
# notes: as for B1
# B9: 1CP-118 (antibody, human IgG1, kappa, V domains shown)
# VH: QVQLVQSGSELKKPGESVKVSCKASGYTLTDFSMHWVRQAPGQGLEWMGWINTETGAPTYADDFKGRFVLSLDTSVSTAYLQISSLKSEDTAVYYCSRGRDYDPHFDYWGQGTLVTVSS
# VL: EIVLTQSPATLSLSPGERATLSCRASQSISDFLHWYQQKPGQSPRLLIKYASQSISGIPARFSGSGSGSDFTLTISSVEPEDFAVYYCQSAHSFPYTFGQGTKLEIKR
# notes: as for B1
# B10: 1CP-126 (antibody, human IgG1, kappa, V domains shown)
# VH: QVQLVQSGAEVKKPGASVKVSCKASGYNFISYWLHWVRQAPGQGLEWMGGIYPGNTDTTYNQKFKGRVTMTADTSTSTAYMELSSLRSEDTAVYYCIRYDYDRGMDYWGQGTLVTVSS
# VL: DIQMTQSPSSLSASVGDRVTITCRASEDIYYRLAWYQQKPGKAPKLLISGATALETGVPSRFSGSGSGKDYTFTISSLQPEDIATYYCQHYWNIPWTFGQGTKVEIKR
# notes: humanized 3C11, human IgG1 kappa
# B11: 1CP-133 (antibody, human IgG1, kappa, V domains shown)
# VH: QVQLVQSGAEVKKPGASVKVSCKASGYNFISYWLHWVRQAPGQGLEWMGGIYPGNTDTTYNQKFKGRVTMTADTSTSTVYMELSSLRSEDTAVYYCIRYDYDRGMDYWGQGTLVTVSS
# VL: DIQMTQSPSSLSASVGDRVTITCRASEDIYYRLAWYQQKPGNAPKLLISGATALETGVPSRFSGSGSGKDYTLTISSLQPEDIATYYCQHYWNIPWTFGQGTKVEIKR
# notes: as for B10
# B12: 1CP-135 (antibody, human IgG1, kappa, V domains shown)
# VH: QVQLVQSGAEVKKPGASVKVSCKASGYNFISYWLHWVRQAPGQGLEWMGGIYPGNTDTTYNQKFKGRVTVTAVTSTSTVYMELSSLRSEDTAVYYCIRYDYDRGMDYWGQGTLVTVSS
# VL: DIQMTQSPSSLSASVGDRVTITCRASEDIYYRLAWYQQKPGNAPKLLISGATALETGVPSRFSGSGSGKDYTLTISSLQPEDIATYYCQHYWNIPWTFGQGTKVEIKR
# notes: as for B10
# B13: 1CP-134 (antibody, human IgG1, kappa, V domains shown)
# VH: QVQLVQSGAEVKKPGASVKVSCKASGYNFISYWLHWVRQAPGQGLEWMGGIYPGNTDTTYNQKFKGRVTMTADTSTSTAYMELSSLRSEDTAVYYCIRYDYDRGMDYWGQGTLVTVSS
# VL: DIQMTQSPSSLSASVGDRVTITCRASEDIYYRLAWYQQKPGNAPKLLISGATALETGVPSRFSGSGSGKDYTLTISSLQPEDIATYYCQHYWNIPWTFGQGTKVEIKR
# notes: as for B10
# B14: 1CP-127 (antibody, human IgG1, kappa, V domains shown)
# VH: QVQLVQSGAEVKKPGASVKVSCKASGYNFISYWLHWVRQAPGQGLEWMGGIYPGNTDTTYNQKFKGRVTVTAVTSTSTVYMELSSLRSEDTAVYYCIRYDYDRGMDYWGQGTLVTVSS
# VL: DIQMTQSPSSLSASVGDRVTITCRASEDIYYRLAWYQQKPGKAPKLLISGATALETGVPSRFSGSGSGKDYTFTISSLQPEDIATYYCQHYWNIPWTFGQGTKVEIKR
# notes: as for B10
# B15: 1CP-131 (antibody, human IgG1, kappa, V domains shown)
# VH: QVQLVQSGAEVKKPGASVKVSCKASGYNFISYWLHWVRQAPGQGLEWMGGIYPGNTDTTYNQKFKGRVTVTAVTSTSTVYMELSSLRSEDTAVYYCIRYDYDRGMDYWGQGTLVTVSS
# VL: DIQMTQSPSSLSASVGDRVTITCRASEDIYYRLAWYQQKPGKAPKLLISGATALETGVPSRFSGSGSGKDYTLTISSLQPEDIATYYCQHYWNIPWTFGQGTKVEIKR
# notes: as for B10
# B16: 1CP-132 (antibody, human IgG1, kappa, V domains shown)
# VH: QVQLVQSGAEVKKPGASVKVSCKASGYNFISYWLHWVRQAPGQGLEWMGGIYPGNTDTTYNQKFKGRVTMTRDTSTSTVYMELSSLRSEDTAVYYCIRYDYDRGMDYWGQGTLVTVSS
# VL: DIQMTQSPSSLSASVGDRVTITCRASEDIYYRLAWYQQKPGNAPKLLISGATALETGVPSRFSGSGSGKDYTLTISSLQPEDIATYYCQHYWNIPWTFGQGTKVEIKR
# notes: as for B10
# B17: 1CP-156 (antibody, human IgG1, kappa, V domains shown)
# VH: EVQLVESGGGLVQPGRSLRLSCTTSGLTFTHYHMSWVRQAPGKGLEWVAIIRNKAYGYTTDYSASVRGRFTISRDDSKSILYLQMNSLKTEDTAVYYCVREGGYGYDGTFAYWGQGTLVTVSS
# VL: DIQMTQSPSSLSASVGDRVTITCRASESVDNYGISFMNWFQQKPGQPPKLLIYAASNQGSGVPSRFSGSGSGTDFTLTISSMQPEDFATYYCQQSKEVPRTFGGGTKVEIKR
# notes: humanized 8C9, human IgG1 kappa
# Target: T1, HuCDCP1-C
# Assay: SPR (Caterra), antigen immobilized
# Protocol: The humanized anti-CDCP1 antibodies obtained from Example 11 were subjected to gene cloning, constructed into pTT5 expression vector for a small amount of expression in CHO cells (Expi-CHOS: Gibco A29127), and purified with an Fc affinity column (AT Protein A Diamond Plus. No. AA402312). Antibody purity was analyzed by HPLC and determined by Nanodrop. High-throughput affinity assay was carried out for a small amount of antibodies by Caterra.
binder,measurement,value
B1,Kd,0.368 nM
same,koff,5e-05 s⁻¹
same,kon,136000 M⁻¹ s⁻¹
B2,Kd,0.411 nM
same,koff,5.9e-05 s⁻¹
same,kon,143000 M⁻¹ s⁻¹
B3,Kd,15.2 nM
same,koff,0.00246 s⁻¹
same,kon,161000 M⁻¹ s⁻¹
B4,Kd,11.4 nM
same,koff,0.00227 s⁻¹
same,kon,199000 M⁻¹ s⁻¹
B5,Kd,0.359 nM
same,koff,4.59e-05 s⁻¹
same,kon,128000 M⁻¹ s⁻¹
B6,Kd,5.51 nM
same,koff,0.00124 s⁻¹
same,kon,226000 M⁻¹ s⁻¹
B7,Kd,12.5 nM
same,koff,0.00209 s⁻¹
same,kon,167000 M⁻¹ s⁻¹
B8,Kd,0.122 nM
same,koff,1.7e-05 s⁻¹
same,kon,139000 M⁻¹ s⁻¹
B9,Kd,13.4 nM
same,koff,0.00225 s⁻¹
same,kon,168000 M⁻¹ s⁻¹
B10,Kd,6.78 nM
same,koff,0.00143 s⁻¹
same,kon,211000 M⁻¹ s⁻¹
B11,Kd,≤ 0.0546 nM
same,koff,≤ 1e-05 s⁻¹
same,kon,183000 M⁻¹ s⁻¹
B12,Kd,4.8 nM
same,koff,0.0012 s⁻¹
same,kon,249000 M⁻¹ s⁻¹
B13,Kd,10.5 nM
same,koff,0.00202 s⁻¹
same,kon,193000 M⁻¹ s⁻¹
B14,Kd,9.66 nM
same,koff,0.00198 s⁻¹
same,kon,205000 M⁻¹ s⁻¹
B15,Kd,10.5 nM
same,koff,0.002 s⁻¹
same,kon,191000 M⁻¹ s⁻¹
B16,Kd,≤ 0.0713 nM
same,koff,≤ 1e-05 s⁻¹
same,kon,140000 M⁻¹ s⁻¹
B17,Kd,3.6 nM
same,koff,0.000441 s⁻¹
same,kon,123000 M⁻¹ s⁻¹

# — patent US20260250410A1 (SICHUAN HUIYU PHARMACEUTICAL, published 2026)
